Reference: PMC2888438

Biological target: TRIM25 (UniProt Q14258)
Experiment: co-immunoprecipitation, Western blot
Details: reference: wild type 2CARD; sites S8

RIG-I 2CARD region (CARD1 and CARD2) (from UniProt O95786) S8A
binding against the reference: stronger
